Here are results for two molecules from PMC4005663 (Nucleic Acids Research, 2014).

In this test the target is T1, 6xHis–Brd4(1–720) (human, UniProt O60885 1-720).
T1 construct: not shown: 6xHis, N-terminal, kept
Kind of test: pull-down. The conditions noted are these: both partners purified.

B1: GST–MLV IN NTD–CCD(1–289) (domain or fragment)
chain: IENSSPYTSEHFHYTVTDIKDLTKLGAIYDKTKKYWVYQGKPVMPDQFTFELLDFLHQLTHLSFSKMKALLERSHSPYYMLNRDRTLKNITETCKACAQVNASKSAVKQGTRVRGHRPGTHWEIDFTEIKPGLYGYKYLLVFIDTFSGWIEAFPTKKETAKVVTKKLLEEIFPRFGMPQVLGTDNGPAFVSKVSQTVADLLGIDWKLHCAYRPQSSGQVERMNRTIKETLTKLTLATGSRDWVLLLPLALYRARNTPGPHGLTPYEILYGAPPPLVNFPDPDMTRVTNS
Regarding B1, the equilibrium dissociation constant (Kd) is > 2000 nM.

B2: GST–MLV IN CTD(290–408) (domain or fragment)
chain: PSLQAHLQALYLVQHEVWRPLAAAYQEQLDRPVVPHPYRVGDTVWVRRHQTKNLEPRWKGPYTVLLTTPTALKVDGIAAWIHAAHVKAADPGGGPSSRLTWRVQRSQNPLKIRLTREAP
notes: not shown: GST, N-terminal, kept
Regarding B2, the affinity, expressed as Kd, was 61.2 ± 4.05 nM.
